Measurements from US20230287598A1.

Columns and labels:
[1] = target: CXCR1 (UniProt P25024); test: flow cytometry, CXCR1-U2OS / parental U2OS
[2] = target: CXCR1 (UniProt P25024); test: flow cytometry, 10 nM IgG, 2 ug/ml heparin sulfate, CXCR1-U2OS / parental U2OS
[3] = target: CXCR1 (UniProt P25024); test: flow cytometry, supernatant at 5 nM IgG

CXCR1, sequence (P25024 whole entry): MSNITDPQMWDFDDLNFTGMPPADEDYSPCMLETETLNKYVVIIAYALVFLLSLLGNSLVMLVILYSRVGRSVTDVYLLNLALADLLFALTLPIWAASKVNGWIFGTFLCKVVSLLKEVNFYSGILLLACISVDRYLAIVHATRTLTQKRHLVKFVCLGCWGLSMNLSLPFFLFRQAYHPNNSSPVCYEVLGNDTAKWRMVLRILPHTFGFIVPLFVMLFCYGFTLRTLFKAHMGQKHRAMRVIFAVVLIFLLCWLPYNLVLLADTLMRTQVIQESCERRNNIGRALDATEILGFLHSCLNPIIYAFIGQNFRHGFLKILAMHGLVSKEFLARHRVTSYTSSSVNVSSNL

Row | CXCR1/Parental Ratio [1] | CXCR1 specificity (CXCR1/parental ratio) [2] | Specific Binding (CXCR1-Cell median AFU / Parental Cell median AFU) [3] | Binder
1 | 4.6 | – | – | VH4-34+CDR3-IL8_CDR1 Cow_CDR2 Cow / V1-47 IgG (antibody, part only; not given: V1-47 light chain, part only) VH: QVQLQQWGAGLLKPSETLSLTCTASGFSLSDKAVGWIRQPPGKGLEWLGSIDTGGNTGYNPSLKSRVTISVDTSKNQFSLKLSSVTAADTAVYYCTSVHQETKKYQSPRSAKELRCQCIKTYSKPFHPKFIKELRVIESGPHCANTEIIVKLSDGRELCLDPKENWVQRVVEKFLKRAENSGSGSYTYNYEWHVDVWGQGLLVTVSSAS
2 | 3.6 | – | – | VH4-34+CDR3-IL8_CDR1 G31D,Y32K / V1-47 IgG (antibody, part only; not given: V1-47 light chain, part only) VH: QVQLQQWGAGLLKPSETLSLTCAVYGGSFSDKYWSWIRQPPGKGLEWIGEINHSGSTNYNPSLKSRVTISVDTSKNQFSLKLSSVTAADTAVYYCTSVHQETKKYQSPRSAKELRCQCIKTYSKPFHPKFIKELRVIESGPHCANTEIIVKLSDGRELCLDPKENWVQRVVEKFLKRAENSGSGSYTYNYEWHVDVWGQGLLVTVSSAS
3 | 3.9 | – | – | VH4-34+CDR3-IL8_CDR2 Cow / V1-51 IgG (antibody, part only; not given: V1-51 light chain, part only) VH: QVQLQQWGAGLLKPSETLSLTCAVYGGSFSGYYWSWIRQPPGKGLEWLGSIDTGGNTGYNPSLKSRVTISVDTSKNQFSLKLSSVTAADTAVYYCTSVHQETKKYQSPRSAKELRCQCIKTYSKPFHPKFIKELRVIESGPHCANTEIIVKLSDGRELCLDPKENWVQRVVEKFLKRAENSGSGSYTYNYEWHVDVWGQGLLVTVSSAS
4 | 1.8 | – | – | VH4-34+CDR3-IL8_CDR2 E50S / V1-51 IgG (antibody, part only; not given: V1-51 light chain, part only) VH: QVQLQQWGAGLLKPSETLSLTCAVYGGSFSGYYWSWIRQPPGKGLEWIGSINHSGSTNYNPSLKSRVTISVDTSKNQFSLKLSSVTAADTAVYYCTSVHQETKKYQSPRSAKELRCQCIKTYSKPFHPKFIKELRVIESGPHCANTEIIVKLSDGRELCLDPKENWVQRVVEKFLKRAENSGSGSYTYNYEWHVDVWGQGLLVTVSSAS
5 | 5.1 | – | – | VH4-34+CDR3-IL8_CDR1 Cow / V1-47 IgG (antibody, part only; not given: V1-47 light chain, part only) VH: QVQLQQWGAGLLKPSETLSLTCTASGFSLSDKAVGWIRQPPGKGLEWIGEINHSGSTNYNPSLKSRVTISVDTSKNQFSLKLSSVTAADTAVYYCTSVHQETKKYQSPRSAKELRCQCIKTYSKPFHPKFIKELRVIESGPHCANTEIIVKLSDGRELCLDPKENWVQRVVEKFLKRAENSGSGSYTYNYEWHVDVWGQGLLVTVSSAS
6 | 2.6 | – | – | VH4-34+CDR3-IL8 / V1-47 IgG (antibody, part only; not given: V1-47 light chain, part only) VH: QVQLQQWGAGLLKPSETLSLTCAVYGGSFSGYYWSWIRQPPGKGLEWIGEINHSGSTNYNPSLKSRVTISVDTSKNQFSLKLSSVTAADTAVYYCTSVHQETKKYQSPRSAKELRCQCIKTYSKPFHPKFIKELRVIESGPHCANTEIIVKLSDGRELCLDPKENWVQRVVEKFLKRAENSGSGSYTYNYEWHVDVWGQGLLVTVSSAS
7 | 2.6 | – | – | VH4-34+CDR3-IL8_CDR1 Cow_CDR2 E50S / V1-47 IgG (antibody, part only; not given: V1-47 light chain, part only) VH: QVQLQQWGAGLLKPSETLSLTCTASGFSLSDKAVGWIRQPPGKGLEWIGSINHSGSTNYNPSLKSRVTISVDTSKNQFSLKLSSVTAADTAVYYCTSVHQETKKYQSPRSAKELRCQCIKTYSKPFHPKFIKELRVIESGPHCANTEIIVKLSDGRELCLDPKENWVQRVVEKFLKRAENSGSGSYTYNYEWHVDVWGQGLLVTVSSAS
8 | 3.1 | – | – | VH4-34+CDR3-IL8_CDR1 Cow_CDR2 E50S / V1-51 IgG (antibody, part only; not given: V1-51 light chain, part only) VH: QVQLQQWGAGLLKPSETLSLTCTASGFSLSDKAVGWIRQPPGKGLEWIGSINHSGSTNYNPSLKSRVTISVDTSKNQFSLKLSSVTAADTAVYYCTSVHQETKKYQSPRSAKELRCQCIKTYSKPFHPKFIKELRVIESGPHCANTEIIVKLSDGRELCLDPKENWVQRVVEKFLKRAENSGSGSYTYNYEWHVDVWGQGLLVTVSSAS
9 | 2.4 | 7.2 | – | VH4-34+CDR3-IL8_CDR1 Cow / V1-51 IgG (antibody, part only) heavy: QVQLQQWGAGLLKPSETLSLTCTASGFSLSDKAVGWIRQPPGKGLEWIGEINHSGSTNYNPSLKSRVTISVDTSKNQFSLKLSSVTAADTAVYYCTSVHQETKKYQSPRSAKELRCQCIKTYSKPFHPKFIKELRVIESGPHCANTEIIVKLSDGRELCLDPKENWVQRVVEKFLKRAENSGSGSYTYNYEWHVDVWGQGLLVTVSSAS light: QSVLTQPPSVSAAPGQKVTISCSGSSSNIGNNYVSWYQQLPGTAPKLLIYDNNKRPSGIPDRFSGSKSGTSATLGITGLQTGDEADYYCASAEDSSSNAVFGSGTTLTVLGQPKAAPSVTLFPPSSEELQANKATLVCLISDFYPGAVTVAWKADSSPVKAGVETTTPSKQSNNKYAASSYLSLTPEQWKSHRSYSCQVTHEGSTVEKTVAPTECS
10 | 3 | – | – | VH4-34+CDR3-IL8_CDR1 G31D,Y32K / V1-51 IgG (antibody, part only) heavy: QVQLQQWGAGLLKPSETLSLTCAVYGGSFSDKYWSWIRQPPGKGLEWIGEINHSGSTNYNPSLKSRVTISVDTSKNQFSLKLSSVTAADTAVYYCTSVHQETKKYQSPRSAKELRCQCIKTYSKPFHPKFIKELRVIESGPHCANTEIIVKLSDGRELCLDPKENWVQRVVEKFLKRAENSGSGSYTYNYEWHVDVWGQGLLVTVSSAS light: QSVLTQPPSVSAAPGQKVTISCSGSSSNIGNNYVSWYQQLPGTAPKLLIYDNNKRPSGIPDRFSGSKSGTSATLGITGLQTGDEADYYCASAEDSSSNAVFGSGTTLTVLGQPKAAPSVTLFPPSSEELQANKATLVCLISDFYPGAVTVAWKADSSPVKAGVETTTPSKQSNNKYAASSYLSLTPEQWKSHRSYSCQVTHEGSTVEKTVAPTECS
11 | 1.4 | – | – | VH4-34+CDR3-IL8_CDR1 G31D,Y32K_CDR2 E50S / V1-47 IgG (antibody, part only; not given: V1-47 light chain, part only) VH: QVQLQQWGAGLLKPSETLSLTCAVYGGSFSDKYWSWIRQPPGKGLEWIGSINHSGSTNYNPSLKSRVTISVDTSKNQFSLKLSSVTAADTAVYYCTSVHQETKKYQSPRSAKELRCQCIKTYSKPFHPKFIKELRVIESGPHCANTEIIVKLSDGRELCLDPKENWVQRVVEKFLKRAENSGSGSYTYNYEWHVDVWGQGLLVTVSSAS
12 | 2.5 | – | – | VH4-34+CDR3-IL8_CDR2 Cow / V1-47 IgG (antibody, part only; not given: V1-47 light chain, part only) VH: QVQLQQWGAGLLKPSETLSLTCAVYGGSFSGYYWSWIRQPPGKGLEWLGSIDTGGNTGYNPSLKSRVTISVDTSKNQFSLKLSSVTAADTAVYYCTSVHQETKKYQSPRSAKELRCQCIKTYSKPFHPKFIKELRVIESGPHCANTEIIVKLSDGRELCLDPKENWVQRVVEKFLKRAENSGSGSYTYNYEWHVDVWGQGLLVTVSSAS
13 | 3.3 | – | – | VH4-34+CDR3-IL8_CDR2 E50S / V1-47 IgG (antibody, part only; not given: V1-47 light chain, part only) VH: QVQLQQWGAGLLKPSETLSLTCAVYGGSFSGYYWSWIRQPPGKGLEWIGSINHSGSTNYNPSLKSRVTISVDTSKNQFSLKLSSVTAADTAVYYCTSVHQETKKYQSPRSAKELRCQCIKTYSKPFHPKFIKELRVIESGPHCANTEIIVKLSDGRELCLDPKENWVQRVVEKFLKRAENSGSGSYTYNYEWHVDVWGQGLLVTVSSAS
14 | 2.9 | – | – | VH4-34+CDR3-IL8 / V1-51 IgG (antibody, part only; not given: V1-51 light chain, part only) VH: QVQLQQWGAGLLKPSETLSLTCAVYGGSFSGYYWSWIRQPPGKGLEWIGEINHSGSTNYNPSLKSRVTISVDTSKNQFSLKLSSVTAADTAVYYCTSVHQETKKYQSPRSAKELRCQCIKTYSKPFHPKFIKELRVIESGPHCANTEIIVKLSDGRELCLDPKENWVQRVVEKFLKRAENSGSGSYTYNYEWHVDVWGQGLLVTVSSAS
15 | 3 | – | – | VH4-34+CDR3-IL8_CDR1 G31D,Y32K_CDR2 E50S / V1-51 IgG (antibody, part only; not given: V1-51 light chain, part only) VH: QVQLQQWGAGLLKPSETLSLTCAVYGGSFSDKYWSWIRQPPGKGLEWIGSINHSGSTNYNPSLKSRVTISVDTSKNQFSLKLSSVTAADTAVYYCTSVHQETKKYQSPRSAKELRCQCIKTYSKPFHPKFIKELRVIESGPHCANTEIIVKLSDGRELCLDPKENWVQRVVEKFLKRAENSGSGSYTYNYEWHVDVWGQGLLVTVSSAS
16 | – | – | 2 | VH4-34+CDR3-IL8_CDR1-Cow_CDR2-E50S_Q5RQ6E / VL1-51 S2A, T5N, P8S, A12G, A13S, P14L, K46R, L47T, D51G, N52D, N53T IgG (antibody) VH: QVQLREWGAGLLKPSETLSLTCTASGFSLSDKAVGWIRQPPGKGLEWIGSINHSGSTNYNPSLKSRVTISVDTSKNQFSLKLSSVTAADTAVYYCTSVHQETKKYQSPRSAKELRCQCIKTYSKPFHPKFIKELRVIESGPHCANTEIIVKLSDGRELCLDPKENWVQRVVEKFLKRAENSGSGSYTYNYEWHVDVWGQGLLVTVSS light: QAVLNQPSSVSGSLGQKVTISCSGSSSNIGNNYVSWYQQLPGTAPRTLIYGDTKRPSGIPDRFSGSKSGTSATLGITGLQTGDEADYYCASAEDSSSNAVFGSGTTLTVLGQPKAAPSVTLFPPSSEELQANKATLVCLISDFYPGAVTVAWKADSSPVKAGVETTTPSKQSNNKYAASSYLSLTPEQWKSHRSYSCQVTHEGSTVEKTVAPTECS
17 | – | – | 2 | VH4-34+CDR3-IL8_CDR2 E50S / VL1-51 S2A, T5N, P8S, A12G, A13S, P14L, D51G, N52D, N53T IgG (antibody) VH: QVQLQQWGAGLLKPSETLSLTCAVYGGSFSGYYWSWIRQPPGKGLEWIGSINHSGSTNYNPSLKSRVTISVDTSKNQFSLKLSSVTAADTAVYYCTSVHQETKKYQSPRSAKELRCQCIKTYSKPFHPKFIKELRVIESGPHCANTEIIVKLSDGRELCLDPKENWVQRVVEKFLKRAENSGSGSYTYNYEWHVDVWGQGLLVTVSSAS light: QAVLNQPSSVSGSLGQKVTISCSGSSSNIGNNYVSWYQQLPGTAPKLLIYGDTKRPSGIPDRFSGSKSGTSATLGITGLQTGDEADYYCASAEDSSSNAVFGSGTTLTVLGQPKAAPSVTLFPPSSEELQANKATLVCLISDFYPGAVTVAWKADSSPVKAGVETTTPSKQSNNKYAASSYLSLTPEQWKSHRSYSCQVTHEGSTVEKTVAPTECS
